The target of one assay is T1, murine CXCR5 (mouse, UniProt Q04683 1-374).
T1 construct: whole, on cells; also called mouse CXCR5 ortholog
T1 sequence (looked up): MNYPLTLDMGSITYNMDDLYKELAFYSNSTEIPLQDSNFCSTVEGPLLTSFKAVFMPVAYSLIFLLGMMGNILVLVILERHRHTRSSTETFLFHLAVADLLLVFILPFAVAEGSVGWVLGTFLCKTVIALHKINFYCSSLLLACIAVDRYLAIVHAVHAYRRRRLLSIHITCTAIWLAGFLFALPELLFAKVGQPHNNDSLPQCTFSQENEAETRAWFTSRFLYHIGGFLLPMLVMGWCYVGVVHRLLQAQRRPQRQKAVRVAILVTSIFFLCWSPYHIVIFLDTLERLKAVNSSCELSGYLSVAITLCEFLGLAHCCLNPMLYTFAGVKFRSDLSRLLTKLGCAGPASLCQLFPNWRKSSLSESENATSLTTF
As to the kind of experiment: flow cytometry on cells transiently transfected with murine CXCR5.

For assay [1], the target named is T2, human CXCR5 (human, UniProt P32302 1-372).
T2 construct: whole, on cells; Always presented on cells; one entry is used for all cell lines; also called hCXCR5; C-X-C chemokine receptor type 5
T2 sequence (looked up): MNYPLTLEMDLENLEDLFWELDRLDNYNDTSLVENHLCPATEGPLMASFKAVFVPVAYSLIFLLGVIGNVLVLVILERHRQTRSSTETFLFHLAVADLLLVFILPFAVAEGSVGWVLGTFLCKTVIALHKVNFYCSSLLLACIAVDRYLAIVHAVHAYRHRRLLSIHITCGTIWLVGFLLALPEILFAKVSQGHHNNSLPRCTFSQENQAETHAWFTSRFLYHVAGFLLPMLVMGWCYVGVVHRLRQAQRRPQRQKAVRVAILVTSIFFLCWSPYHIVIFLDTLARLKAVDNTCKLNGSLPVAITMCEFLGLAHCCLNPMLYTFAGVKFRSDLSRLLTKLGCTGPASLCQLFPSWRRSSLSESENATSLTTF
The experiment in a line: flow cytometry on an adherent stable cell line expressing hCXCR5, MFI normalized on the benchmark MFI. (In general: Flow cytometry measures light scatter and fluorescence of single cells or particles in a stream.)
Procedure: In order to test the binding capacity to CXCR5, six chimeric monoclonal antibodies were tested in binding assay using adherent stable cell line expressing the target antigen hCXCR5.

In the next assay the target is T3, human CXCR3 (human, UniProt P49682 1-368, limits assumed).
T3 construct: also called hCXCR3
T3 sequence (looked up): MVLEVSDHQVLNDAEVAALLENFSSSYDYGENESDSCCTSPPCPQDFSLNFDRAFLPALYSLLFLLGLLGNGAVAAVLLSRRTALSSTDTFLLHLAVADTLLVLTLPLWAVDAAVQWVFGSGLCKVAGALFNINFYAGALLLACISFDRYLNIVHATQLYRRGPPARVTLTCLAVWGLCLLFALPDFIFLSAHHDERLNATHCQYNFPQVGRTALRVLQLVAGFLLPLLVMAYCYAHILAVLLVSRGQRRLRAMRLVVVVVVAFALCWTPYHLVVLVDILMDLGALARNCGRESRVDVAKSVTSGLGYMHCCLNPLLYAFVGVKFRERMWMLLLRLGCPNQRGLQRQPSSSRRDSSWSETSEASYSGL
The experiment in a line: flow cytometry (MFI) on hCXCR3.

A further assay addresses T4, cynomolgus CXCR5 (cynomolgus monkey, UniProt G8F5K4 1-372).
T4 construct: whole, on cells; also called monkey CXCR5 ortholog
T4 sequence: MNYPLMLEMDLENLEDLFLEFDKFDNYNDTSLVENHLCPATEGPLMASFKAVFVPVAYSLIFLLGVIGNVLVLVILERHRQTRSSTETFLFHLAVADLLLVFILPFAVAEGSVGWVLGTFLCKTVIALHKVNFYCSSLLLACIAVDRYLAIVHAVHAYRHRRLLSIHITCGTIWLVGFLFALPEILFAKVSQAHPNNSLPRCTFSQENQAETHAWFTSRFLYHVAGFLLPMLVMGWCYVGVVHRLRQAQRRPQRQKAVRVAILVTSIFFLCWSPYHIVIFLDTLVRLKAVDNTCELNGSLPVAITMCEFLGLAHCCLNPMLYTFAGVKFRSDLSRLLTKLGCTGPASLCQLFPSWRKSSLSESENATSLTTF
The experiment in a line: flow cytometry on cells transiently transfected with cynomolgus CXCR5.

For assay [2], the target named is T2, human CXCR5. The experiment in a line: flow cytometry on DX002 cells expressing CXCR5, MFI.
For a further assay, the target named is CD16 (UniProt P08637 17-254, limits assumed). As to the kind of experiment: cell-based or functional assay.
Chain of CD16 (P08637 17-254 limits assumed): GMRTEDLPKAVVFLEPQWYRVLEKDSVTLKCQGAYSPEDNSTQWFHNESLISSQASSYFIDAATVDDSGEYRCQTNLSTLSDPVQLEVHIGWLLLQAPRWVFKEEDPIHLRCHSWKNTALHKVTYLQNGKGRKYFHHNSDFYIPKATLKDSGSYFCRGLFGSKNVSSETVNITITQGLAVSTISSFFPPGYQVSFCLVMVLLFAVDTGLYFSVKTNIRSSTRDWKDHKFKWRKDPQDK
The target of assay [3] is T2, human CXCR5. As to the kind of experiment: binding to hCXCR5, Exp 2 (assay not given).
The target of assay [4] is T2, human CXCR5. The experiment in a line: binding to hCXCR5, Exp 1 (assay not given).
Assay [5] addresses T2, human CXCR5.
The target in assay [6] is T2, human CXCR5. As to the kind of experiment: flow cytometry on adherent DX002 cells expressing CXCR5, MFI.
In assay [7] the target is T2, human CXCR5. As to the kind of experiment: cell-based or functional assay.
For assay [8], the target named is T2, human CXCR5. As to the kind of experiment: binding to DX002 cells expressing CXCR5.

Where two headings read alike, the source gives them in different places.

B1: HFB2-2-hG1 (antibody, V domains shown)
VH: EVQLVETGGGLVQPKGSLKLSCAASGFTFNTNAMNWVRQAPGKGLEWVARIRSKSNNYATHYVDSVKDRFTISRDDSQSMLYLQMNNLKTEDTAMYYCVSWDPFAYWGQGTLVTVSA
VL: NIMMTQSPSSLAVSAGEKVTMSCKSSQSVLYSSNQKNYLAWYQQKPGQSPKLLIYWASTRASGVPDRFTGSGSGTDFTLTISSVQTEDLAVYYCHQYLSSWTFGGGAKLEIK
notes: Mouse-human chimeric antibody, human IgG1 constant region
In general, EC50 refers to the concentration needed to bring the measured effect to its halfway point. Read a high EC50 as lower potency in that assay. B1: the binding result with murine CXCR5, with human CXCR3 and in the assay with cynomolgus CXCR5 was “no binding (tested: about 150 nM)” each time. The EC50 in the assay with human CXCR5 [1] was determined as 482 pM.

B2: afucosylated HFB2-4hz42-hG1 (antibody, V domains shown)
VH: QVQLVQSGAEVKKPGASVKVSCKASGFSLTSYGVSWVRQAPGQGLEWMGVIWGDGSTNYAQKLQGRVTMTKDTSTSTAYMELRSLRSDDTAVYYCARVVYWGQGTLVTVSS
VL: EIVMTQSPATLSVSPGERATLSCRSSKSLLHSNGKTYLYWFQQKPGQAPRLLIYRMSNLASGIPARFSGSGSGTEFTLTISSVQSEDVAVYYCMQHLEYPYTFGQGTKLEIK
modifications: afucosylated (no core fucose on the Fc N-glycan of the heavy chain)
notes: Afucosylated format of humanized HFB2-4hz42-hG1 (human IgG1); also called afu-HFB2-4hz42-hG1; Afu-HFB2-4hz42-hG1
For the molecule B2, the concentration giving a half-maximal response (EC50) with human CXCR5 [2] was 820 pM.

B3: HFB2-1-hG1 (antibody, V domains shown)
VH: EVKLEESGGGLVQPGGSMKLSCVASGFTFSNYWMNWVRQSPEKGLEWVAQIRLKSDNYATHYTESVKGRFTISRDDSKSSVYLQMNNLRAEDTGIYYCTPPNFDYWGQGTTLTVSS
VL: DIVMTQAAPSVTVTPGESVTISCRSTTSLLHRSGKHKFYWFLQRPGQSPQLLIYYVSNLASGVPDRFSGSGSGTDFTLRISRVEAEDFGVYYCMQSLEFPLTFGTGTKLEIK
notes: Mouse-human chimeric antibody: murine VH and VL on the human IgG1 constant region
Turning to B3, the binding result with murine CXCR5, with human CXCR3 and with cynomolgus CXCR5 was “no binding (tested: about 150 nM)” in each case. The molecule further yielded an EC50 in the assay with human CXCR5 [1] of 481 pM.

B4: HFB2-4hz9-hG1DE (antibody, V domains shown)
VH: QVQLQESGPGLVKPSETLSLTCTVSGFSLTSYGVSWVRQPPGKGLEWIGVIWGDGSTNYNPSLKSRVTISKDTSKNQVSLKLSSVTAADTAVYYCARVVYWGQGTLVTVSS
VL: DIVMTQSPLSLPVTPGEPASISCRSSKSLLHSNGKTYLYWFLQKPGQSPQLLIYRMSNLASGVPDRFSGSGSGTDFTLKISRVEAEDVGVYYCMQHLEYPYTFGGGTKVEIK
notes: Humanized (VH3/VL1), human IgG1 constant region with S239D/I332E (hG1DE)
Consider B4, for which the “ADCC activity, EC50” value with CD16 was in the range of 1 to 2 pM. In addition, the 50% effective concentration (EC50) worked out at 1000 pM in the assay with human CXCR5 [3] and 1300 pM in the assay with human CXCR5 [4].

B5: HFB2-3-hG1 (antibody, V domains shown)
VH: QVQLKQSGPGLVQPSQSLSITCTVSGFSLTSYGVHWVRQSPGKGLEWLGVTWSGGRTDYNAAFISRLSINKDNSKSQVFFKMNSLQVNDTAIYYCARGGNYWGQGTSVTVSS
VL: not shown
notes: as for B1
B5: the binding result in the assay with murine CXCR5, with human CXCR3 and in the assay with cynomolgus CXCR5 was “no binding (tested: about 150 nM)” throughout. Further, a half-maximal effect in the assay with human CXCR5 [5] (EC50) was put at 569 pM.

B6: HFB2-4hG1DE (antibody, V domains shown)
VH: QVQLKESGPGLVAPSQSLSITCTVSGFSLTSYGVSWVRQPPGKGLEWLGVIWGDGSTNYHSGLISRLSISKDNSKSQVFLKLNSLQSDDTATYYCARVVYWGQGTLVTVSA
VL: DIVMTQAAPSVPVTPGESISISCRSSKSLLHSNGKTYLYWFLQRPGQSPQLLLYRMSNLASGVPDRFSGSGSGTAFTLRISRVEAEDVGVYYCMQHLEYPYTFGGGTKLEIK
notes: Chimeric HFB2-4 in the DE scaffold: human IgG1 constant region with S239D/I332E; also called HFB2-4DE
For B6, the 50% effective concentration (EC50) in the assay with human CXCR5 [6] worked out at 112 pM; in the assay with human CXCR5 [8], 186 pM; with human CXCR5 [3] it was 1300 pM; in the assay with human CXCR5 [4], 1000 pM. The “ADCC lysis of Raji cells by primary NK cells, EC50” value with human CXCR5 [7] was 0.76 pM. Further, the “ADCC lysis of peripheral primary B cells by primary NK cells, EC50” value with human CXCR5 [7] was determined as 0.00044 pM.

B7: afucosylated HFB2-4hG1 (antibody, V domains shown)
VH: QVQLKESGPGLVAPSQSLSITCTVSGFSLTSYGVSWVRQPPGKGLEWLGVIWGDGSTNYHSGLISRLSISKDNSKSQVFLKLNSLQSDDTATYYCARVVYWGQGTLVTVSA
VL: DIVMTQAAPSVPVTPGESISISCRSSKSLLHSNGKTYLYWFLQRPGQSPQLLLYRMSNLASGVPDRFSGSGSGTAFTLRISRVEAEDVGVYYCMQHLEYPYTFGGGTKLEIK
modifications: afucosylated (no core fucose on the Fc N-glycan of the heavy chain)
notes: Afucosylated format of the chimeric HFB2-4hG1 (human IgG1, no DE mutation); also called afu-HFB2-4hG1; AfuHFB2-4hG1
In turn, B7 yielded an EC50 with human CXCR5 [2] of 810 pM.

Source of the values: US20240158517A1 (HIFIBIO HK, published 2024).
